# In publication PMC12229497, “The intracellular bacterium Orientia tsutsugamushi uses the autotransporter ScaC to activate BICD adaptors for dynein-based motility” (Nature Communications, 2025):
# B1: Strep-BICD2^711–800 (CC3 domain) (domain or fragment, mouse, UniProt Q921C5 711-800, looked up)
# chain: YENEKAMVTETMMKLRNELKALKEDAATFSSLRAMFATRCDEYITQLDEMQRQLAAAEDEKKTLNSLLRMAIQQKLALTQRLELLELDHE
# notes: also called CC3 of BICD2; not shown: Strep, N-terminal, kept
# B2: Strep-BICD2^711–800 L742A (domain or fragment, mouse, UniProt Q921C5 711-800, looked up)
# chain: YENEKAMVTETMMKLRNELKALKEDAATFSSARAMFATRCDEYITQLDEMQRQLAAAEDEKKTLNSLLRMAIQQKLALTQRLELLELDHE
# notes: not shown: Strep, N-terminal, kept
# B3: Strep-BICD2^711–800 L742A/L786A (domain or fragment, mouse, UniProt Q921C5 711-800, looked up)
# chain: YENEKAMVTETMMKLRNELKALKEDAATFSSARAMFATRCDEYITQLDEMQRQLAAAEDEKKTLNSLLRMAIQQKAALTQRLELLELDHE
# notes: also called double L742A/L786A mutant; not shown: Strep, N-terminal, kept
# B4: Strep-BICD2^711–800 L786A (domain or fragment, mouse, UniProt Q921C5 711-800, looked up)
# chain: YENEKAMVTETMMKLRNELKALKEDAATFSSLRAMFATRCDEYITQLDEMQRQLAAAEDEKKTLNSLLRMAIQQKAALTQRLELLELDHE
# notes: as for B2
# B5: ScaC^50–159 (domain or fragment)
# chain: LRKDIAEVSKLLCMLEKSTASSKNLTMRLQQSDTRENEQSNHIRLLITEIESINKENDCLRQKNNQLKIKLHQLKVKLEQALARNTDLQQILPKSQAEMDNLRKQNEQLK
# notes: source: SoluBL21 E. coli, purified (StrepTactin, Superdex 200)
# B6: ScaC passenger domain (residues 33–223), C-terminal TEV-6His (domain or fragment)
# chain: VSNMNLDISNMGEAREGLRKDIAEVSKLLCMLEKSTASSKNLTMRLQQSDTRENEQSNHIRLLITEIESINKENDCLRQKNNQLKIKLHQLKVKLEQALARNTDLQQILPKSQAEMDNLRKQNEQLKIQLQQLQVKLQDLMSLQNKCSNLALINSVKLNYIRDIKYIALANIVIVKALASTFTEKLSKSNR
# notes: source: SoluBL21 E. coli, purified (Ni-NTA, MonoQ, Superdex 200)
# B7: ScaC-AF647 (ScaC-SNAP labelled with SNAP-Surface Alexa Fluor 647) (domain or fragment)
# chain: VSNMNLDISNMGEAREGLRKDIAEVSKLLCMLEKSTASSKNLTMRLQQSDTRENEQSNHIRLLITEIESINKENDCLRQKNNQLKIKLHQLKVKLEQALARNTDLQQILPKSQAEMDNLRKQNEQLKIQLQQLQVKLQDLMSLQNKCSNLALINSVKLNYIRDIKYIALANIVIVKALASTFTEKLSKSNR
# modifications: Alexa Fluor 647 on the SNAP tag (SNAP-Surface Alexa Fluor 647)
# notes: source: SoluBL21 E. coli, purified (Ni-NTA, MonoQ, labelling, Superdex 200)
# Key:
# [1] = target: T1, RAB6^Q72L (GTP-locked RAB6 mutant) (human, UniProt P20340 1-208, Q72L); test: pull-down; conditions: both partners purified
# T1 construct: source: SoluBL21 E. coli, purified (Glutathione Sepharose, GST cleaved, Superose 6, with 10 μM GTP); not shown: GST, N-terminal, cleaved
# T1 sequence (P20340 whole entry Q72L): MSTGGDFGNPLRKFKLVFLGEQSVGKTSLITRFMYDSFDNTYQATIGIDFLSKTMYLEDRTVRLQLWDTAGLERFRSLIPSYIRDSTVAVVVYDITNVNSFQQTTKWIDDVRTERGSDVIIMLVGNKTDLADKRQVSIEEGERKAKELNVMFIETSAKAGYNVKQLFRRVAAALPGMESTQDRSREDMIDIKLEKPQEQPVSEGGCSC
# [2] = target: T2, GCN4-RANBP2^min (RANBP2 residues 2148–2240 fused to an N-terminal GCN4 dimerization tag) (human, UniProt P49792 2148-2240); test: pull-down; conditions: both partners purified
# T2 construct: not shown: GCN4 dimerization tag, N-terminal, kept
# T2 sequence (P49792 2148-2240): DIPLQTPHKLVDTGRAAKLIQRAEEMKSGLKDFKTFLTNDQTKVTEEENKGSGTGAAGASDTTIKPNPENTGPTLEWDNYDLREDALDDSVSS
# [3] = target: B6; test: SEC; reconstitution: BICD2 and ScaC constructs mixed in a 1:2 molar ratio, 15 min on ice, Superose 6 Increase 3.2/300 in GF150 buffer; fractions on SDS-PAGE; conditions: both partners purified
# [4] = target: B6; test: pull-down; conditions: both partners purified
# BICD2, full-length mouse [5] = target: T3, BICD2, full-length mouse (mouse, UniProt Q921C5 1-820); test: SEC; reconstitution: BICD2 and ScaC constructs mixed in a 1:2 molar ratio, 15 min on ice, Superose 6 Increase 3.2/300 in GF150 buffer; fractions on SDS-PAGE; conditions: both partners purified
# T3 construct: also called full-length BICD2
# T3 sequence (Q921C5 whole entry): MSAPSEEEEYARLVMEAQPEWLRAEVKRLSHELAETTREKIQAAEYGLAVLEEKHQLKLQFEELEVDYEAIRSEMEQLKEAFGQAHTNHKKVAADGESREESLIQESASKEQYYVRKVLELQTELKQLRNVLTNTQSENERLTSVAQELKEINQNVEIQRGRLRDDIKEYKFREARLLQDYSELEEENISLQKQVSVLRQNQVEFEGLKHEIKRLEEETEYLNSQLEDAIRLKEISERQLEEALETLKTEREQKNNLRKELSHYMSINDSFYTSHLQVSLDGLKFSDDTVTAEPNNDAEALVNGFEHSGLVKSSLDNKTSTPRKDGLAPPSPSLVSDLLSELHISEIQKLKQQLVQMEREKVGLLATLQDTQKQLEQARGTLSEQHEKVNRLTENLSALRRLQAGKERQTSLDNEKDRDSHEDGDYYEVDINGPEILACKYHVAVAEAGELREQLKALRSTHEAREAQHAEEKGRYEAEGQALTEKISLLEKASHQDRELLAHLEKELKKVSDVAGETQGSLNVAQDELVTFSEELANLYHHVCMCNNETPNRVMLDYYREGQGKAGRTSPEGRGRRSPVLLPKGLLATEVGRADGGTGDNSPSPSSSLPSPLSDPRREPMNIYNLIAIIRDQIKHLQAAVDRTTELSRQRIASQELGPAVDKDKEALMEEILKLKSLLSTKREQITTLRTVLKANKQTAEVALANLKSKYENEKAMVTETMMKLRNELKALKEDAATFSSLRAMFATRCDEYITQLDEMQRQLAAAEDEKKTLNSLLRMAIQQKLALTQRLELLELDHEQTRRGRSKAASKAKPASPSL
# BICD2, full-length mouse [6] = target: T3, BICD2, full-length mouse; test: SEC-MALS; 1 mg/mL, Superose 6 10/300, GF150 buffer, 0.5 ml/min; conditions: both partners purified
# [7] = target: the molecule itself; test: as above
# [8] = target: T4, BICD2-AF488 (BICD2-SNAP labelled with SNAP-Surface Alexa Fluor 488) (mouse, UniProt Q921C5 1-820, Alexa Fluor 488 on the SNAP tag (SNAP-Surface Alexa Fluor 488)); test: single-molecule TIRF dual-colour co-migration on microtubules; conditions: both partners purified
# T4 construct: also called BICD2-488; not shown: SNAP, C-terminal, kept
# T4 sequence (Q921C5 whole entry): as above
binder,measurement,setting,value
B1,binding result,[1],binds
same,binding result,[2],binds
same,binding result,[3],binds
B2,binding result,[4],binds
B3,binding result,[4],binds
B4,binding result,[4],binds
B5,binding result,"BICD2, full-length mouse [5]",binds
B6,stoichiometry N,"BICD2, full-length mouse [6]",1 ScaC:BICD2 (2:2)
same,stoichiometry N,[7],2
B7,binding result,[8],binds
